The text below walks through data of PMC8519931.

The target of the test is GFP-LC3B (UniProt Q9GZQ8). The test is described as follows: co-IP; GFP-LC3 captured on GFP-Trap magnetic beads from HEK-293 T lysates (NP-40 IP lysis buffer: 50 mM Tris-HCl pH 7.5, 150 mM NaCl, 1 mM EDTA, 1% IGEPAL), 1 h at 4 °C; HA-BNIP3 forms detected by blot; cells with or without 100 nM bafilomycin A1 and with or without exogenous FLAG-ULK1.

Sequence of HA-BNIP3 (WT) (natural protein) (Q12983 whole entry): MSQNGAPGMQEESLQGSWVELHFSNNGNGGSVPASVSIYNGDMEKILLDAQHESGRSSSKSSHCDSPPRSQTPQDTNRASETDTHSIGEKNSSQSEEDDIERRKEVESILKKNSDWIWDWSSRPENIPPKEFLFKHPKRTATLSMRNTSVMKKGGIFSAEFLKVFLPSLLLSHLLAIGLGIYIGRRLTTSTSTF

In the case of HA-BNIP3 (WT) (natural protein), the fold increase in binding with 100 nM bafilomycin A1 against untreated cells is 2.5 fold.

HA-BNIP3 S17E (natural protein) showed a fold increase in binding with 100 nM bafilomycin A1 against untreated cells of 9 fold.
